Measurements published in patent US20150376264A1.
Values joined by “and” are separate entries in the source; they are usually repeats but may differ in a detail not shown here. Equal values may be shown once. Read-outs that look alike come from different tables or passages of the source.

What was measured:
Experiment in all cases: cell-based or functional assay
relaxin receptor (LGR7) [1] = molecular target: relaxin receptor (LGR7)
relaxin receptor (LGR7) [2] = molecular target: relaxin receptor (LGR7); remark: listed apart in the source
Leptin receptor = molecular target: Leptin receptor

## Relaxin-2 (ligand)
Relaxin receptor (LGR7) [1]
  Fluorescence reading (luciferase assay) at 0.00035 uM: 14600
  Fluorescence reading (luciferase assay) at 0.003153 uM: 24500
  Fluorescence reading (luciferase assay) at 0.00946 uM: 30200 and 24900 and 28500
Relaxin receptor (LGR7) [2]
  Fluorescence reading (luciferase assay) at 0.000000481 uM: 1440 and 480 and 560
  Fluorescence reading (luciferase assay) at 0.00000144 uM: 2880 and 2160 and 1280
  Fluorescence reading (luciferase assay) at 0.00000433 uM: 4400 and 2400
  Fluorescence reading (luciferase assay) at 0.000013 uM: 10800 and 8960 and 9840
  Fluorescence reading (luciferase assay) at 0.0000389 uM: 12100 and 7120 and 12800
  Fluorescence reading (luciferase assay) at 0.000117 uM: 18500 and 18200
  Fluorescence reading (luciferase assay) at 0.00035 uM: 21500 and 19100
  Fluorescence reading (luciferase assay) at 0.001051 uM: 29000 and 26800
  Fluorescence reading (luciferase assay) at 0.003153 uM: 23300 and 23700

## human leptin (R&D) (from UniProt P41159 22-167) (ligand)
Leptin receptor
  EC50 (Baf3-LepR cell proliferation, AlamarBlue): 0.352 nM
  Fluorescent reading (AlamarBlue) at 0.01 pg/ml (6.25E-08 nM): 2500 and 2520
  Fluorescent reading (AlamarBlue) at 0.1 pg/ml: 1700
  Fluorescent reading (AlamarBlue) at 0.1 pg/ml (6.25E-07 nM): 2010
  Fluorescent reading (AlamarBlue) at 10 pg/ml: 924
  Fluorescent reading (AlamarBlue) at 10 pg/ml (6.25E-05 nM): 2110
  Fluorescent reading (AlamarBlue) at 100 pg/ml (6.25E-03 nM): 725 and 1740
  Fluorescent reading (AlamarBlue) at 1000 pg/ml (0.0625 nM): 7000 and 5190
  Fluorescent reading (AlamarBlue) at 10000 pg/ml (0.625 nM): 26000 and 16500
  Fluorescent reading (AlamarBlue) at 100000 pg/ml (6.25 nM): 29000 and 15300
  Fluorescent reading (AlamarBlue) at 1000000 pg/ml (62.5 nM): 33500 and 26400
  Fluorescent reading (AlamarBlue) at 10000000 pg/ml (6250 nM): 38300 and 32400
